Test results: article PMC12540671
Read-outs that look alike come from different tables or passages of the source.

Legend:
[1] = target: ATM (ataxia-telangiectasia mutated) kinase (mouse (endogenous in cerebellar tissue)) (UniProt Q62388); assay: non-reducing SDS-PAGE and immunoblot; ex vivo mouse cerebellar tissue culture exposed to glargine (100 nM, 2 h); proteins denatured in 2% SDS without boiling, separated under nonreducing conditions at 4 °C; the NOX4 antagonist GLX7013114 or shRNA impeded the insulin-induced dimerization
[2] = target: PKM2 (pyruvate kinase M2) (mouse (endogenous in cerebellar tissue)) (UniProt P52480); assay: cross-linking; 5 mM disuccinimidyl suberate (DSS), 30 min, room temperature, quenched with Tris, then immunoblot for PKM2; mouse cerebellar tissue of Atm-WT and Atm-KO, also with TEPP-46
[3] = target: PKM2 (pyruvate kinase M2) (mouse (endogenous in cerebellar tissue)) (UniProt P52480); assay: as above; remark: listed apart in the source

Chain of PKM2 (pyruvate kinase M2), P52480 1-531 (enzyme; other documents disagree on this pair) (P52480 whole entry): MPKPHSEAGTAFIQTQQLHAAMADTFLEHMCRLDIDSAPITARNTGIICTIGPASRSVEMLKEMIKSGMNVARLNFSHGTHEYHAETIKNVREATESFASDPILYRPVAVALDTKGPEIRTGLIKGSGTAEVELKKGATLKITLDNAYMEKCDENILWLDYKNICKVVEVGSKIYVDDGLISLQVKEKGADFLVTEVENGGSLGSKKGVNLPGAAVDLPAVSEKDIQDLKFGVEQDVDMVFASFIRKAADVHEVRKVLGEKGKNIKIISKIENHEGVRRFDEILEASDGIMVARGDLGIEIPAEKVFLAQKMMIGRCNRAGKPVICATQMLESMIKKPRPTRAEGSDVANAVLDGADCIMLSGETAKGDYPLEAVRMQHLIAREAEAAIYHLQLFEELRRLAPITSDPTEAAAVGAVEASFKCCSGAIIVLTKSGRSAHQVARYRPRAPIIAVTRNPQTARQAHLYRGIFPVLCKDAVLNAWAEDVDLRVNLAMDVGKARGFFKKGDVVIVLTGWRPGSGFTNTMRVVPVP

Row | stoichiometry N [2] | stoichiometry N [3] | Substance | stoichiometry N [1]
1 |  |  | ATM (ataxia-telangiectasia mutated) kinase, Q62388 1-3066 | 2
2 | 4 | 2 | PKM2 (pyruvate kinase M2), P52480 1-531 (enzyme; other documents disagree on this pair) | 
